Source: PMC7352223 (2020)
No end group written: not given here.

T1: S100A1 (Homo sapiens, UniProt P23297)
T1 chain: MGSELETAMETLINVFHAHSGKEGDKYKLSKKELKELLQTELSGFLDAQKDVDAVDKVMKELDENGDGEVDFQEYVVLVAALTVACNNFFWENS

B1: TRPM4 (M4ct_WT) (peptide)
chain: PFIVISHLRLLLRQLCRRPRS
modifications: also: Ca2+
B2: TRPM4 (M4nt_WT) (peptide)
chain: FGECYRSSEVRAARLLLRRCPL
modifications: cysteine pairing not given here; also: Ca2+

Columns and labels:
S100A1 = biological target: T1, S100A1; assay: fluorescence anisotropy
Calmodulin = Calmodulin (Homo sapiens, UniProt P0DP23); assay: fluorescence anisotropy

Binder | Kd (S100A1) | Kd (Calmodulin)
B1 | 12000 nM | 2600 nM
B2 | 2700 nM | 1300 nM
